The text below walks through data of patent US20080311122A1 (AstraZeneca / MedImmune, published 2008).

Assay [1] deals with T1, HMGB1 in joint lysates of adjuvant induced arthritis (AIA) rats (rat, UniProt P63159 2-215).
T1 construct: also called HMGB1 from arthritis joints; AA joint lysates
T1 sequence (looked up): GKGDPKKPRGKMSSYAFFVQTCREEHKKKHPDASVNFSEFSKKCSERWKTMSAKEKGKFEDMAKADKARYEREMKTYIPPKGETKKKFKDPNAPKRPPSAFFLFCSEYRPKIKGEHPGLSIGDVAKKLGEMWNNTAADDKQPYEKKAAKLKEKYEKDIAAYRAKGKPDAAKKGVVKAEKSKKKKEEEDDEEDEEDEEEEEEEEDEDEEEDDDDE
Briefly: sandwich ELISA and immunoprecipitation with Western blot. Here is the method: HMGB1 Detection from Biological Samples: For detection of the HMGB1 from AA joint homogenates and peritonitis sera, sandwich ELISA was performed. Goat anti-human Fc (Pierce) 14 μg/ml in PBS was coated on Immunlon IV microtiter plate over night at 4° C. After washing and blocking with 5% milk 1 hr at room temperature, G4 or S6 in blocking buffer (10 μg/ml) were added to each well of the blocked plate. The plate was washed 1 hour later and 25 μl of AIA homogenates containing 0.8 μg/ml of HMGB1 or peritonitis sera containing 7 μg/ml of HMGB1 in 0.5 M NaCl/blocking buffer were added to the wells at two fold serial dilutions. The unbound materials were removed by washing one hr after incubation. The bound HMGB1 was detected by a mouse anti-HMGB1 antibody at 2 μg/ml followed by an anti-mouse antibody conjugated with horseradish peroxidase. Mouse peritonitis sera was obtained by heart puncture 7 days after infection with heat killed staphylococcus aureus. Joint lysate was prepared from the whole paw of AIA rats as described in Example 6 below. Human sepsis sera were purchased from a commercial source.
Immunoprecipitation and Western Blot: Anti-HMGB1 mAbs (G4 and S6) and isotype control were first biotinylated using EZ-Link Sulfo-NHS-LC-Biotin as instructed by the manufacturer (Pierce). After labeling, the mAb was tested for binding to HMGB1 by ELISA with unlabeled mAbs as controls. […]

The target in assay [2] is T2, HMGB1 C-terminal tail peptide 188-215 (human, biotinylated).
T2 peptide: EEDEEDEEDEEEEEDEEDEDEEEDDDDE
Briefly: ELISA, biotinylated peptides on avidin plate. The procedure: (§1) The plate was then blocked with 4% milk powder dissolved in PBS at 37° C. for 1 hour. The blocking solution was removed and replaced with human anti-HMG1 antibodies at various concentrations (see FIGS. 5A-B). […] HRP activity was detected with Sureblue HRP substrate (KPL). Plates were read at 450 nm using a Kinetic Microplate Reader (Molecular Devices). […] After washing and blocking with 1% BSA in PBS, the biotinylated peptides were individually added into the avidin coated wells and incubated for 30 min at room temperature. The serial diluted antibody G4, S16 and S6 at the initial concentration at 10 μg/ml were then transferred into the wells followed by adding mouse anti human IgG-HRP conjugate (Pierce). Detection was accomplished by adding 50 μl of tetramethylbenzidine (TMB) substrate (KPL) and the absorbance was read at […].

Assay [3] addresses T3, HMGB1 B-box peptide 108-138 (UniProt P09429 108-138, biotinylated).
T3 peptide (looked up): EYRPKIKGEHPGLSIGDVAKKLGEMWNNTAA
The assay can be described thus: ELISA, biotinylated peptides on avidin plate. The procedure:
as §1

Assay [4] concerns the target T1, HMGB1 in joint lysates of adjuvant …. The assay can be described thus: immunoprecipitation from AIA rat joint lysate, Western blot probed with biotinylated S16 (the method names G4, S6 and isotype control, the legend names S16 for lane 2). Here is the method:
Immunoprecipitation and Western Blot: Anti-HMGB1 mAbs (G4 and S6) and isotype control were first biotinylated using EZ-Link Sulfo-NHS-LC-Biotin as instructed by the manufacturer (Pierce). After labeling, the mAb was tested for binding to HMGB1 by ELISA with unlabeled mAbs as controls. The biological samples, joint lysate (30 μl), was mixed with […] biotinylated G4, S6 or isotype control overnight at 4° C. in 300 μl IP buffer [containing 1×PBS, pH 7.2 (Invitrogen), 0.1% Tween 20, 0.5 M sodium chloride, 10 mM sodium butyrate, and a 1:100 dilution of Phosphatase Inhibitor Cocktail I (Sigma)]. For sepsis sera, Tween 20, sodium chloride, sodium butyrate, and Phosphatase Inhibitor Cocktail I were added to 500 μl sera with the same final concentration as IP buffer. Streptavidin Sepharose beads (GE Healthcare) were blocked in 4% BSA-PBS overnight at 4° C., then washed three times with PBS and resuspended in 1×PBS resulting in 50% slurry. The bead slurry (60 μl) was then added to the overnight mAb/sample mixture and mixed for 20 minutes at room temperature. The beads were washed once with PBS, five times with IP Buffer and then washed twice with PBS by spinning at 1000 g for two min. […] The bands were detected by LumiGlo substrate solution (KPL) after washing.

B1: anti-HMG1 antibody G4 (antibody, V domains shown)
VH: EVQLLESGGGLVQPGGSLRLSCAASGFTFSWYDMTWVRQAPGKGLEWVSSISPSGGYTKYADSVKGRFTISRDNSKNTLYLQMNSLRAEDTAVYYCTTEFYDYLDVWGKGTTVTVSS
VL: DIQMTQSPGTLSLSPGEGATLSCRASQSVSSTYLAWYQQKPGQAPRLLIYEASKRATGTPARFSGSGSGTDFTLSISSLEPEDFAVYYCQHRHNWPPQWTFGQGTKVEVK
notes: also called ATCC PTA-6258
For B1, the binding result in assay [1], in assay [2] and in assay [3] was “binds” throughout.

B2: anti-HMG1 antibody S16 (antibody, V domains shown)
VH: EVQLLESGGGLVQPGGSLRLSCAASGFTFSWYSMLWVRQAPGKGLEWVSYISPSGGFTNYADSVKGRFTISRDNSKNTLYLQMNSLRAEDTAVYYCARWDYNSGWYYDHWGQGTLVTVSS
VL: DIQMTQSPDTLSLSPGERATLSCRASQSVNSRNLAWYQQKPGQAPRLLIYGASTRATGIPDRFSGSVSGTEFTLTISSLQPDDFATYYCQQYNSYFTFGQGTKLEIK
notes: also called ATCC PTA-6259
Turning to B2, the binding result in assay [4] is on record as “binds”.
